Source: US20160208233A1 (Harvard, published 2016)
Residue numbers refer to the chain shown, from its start. “And” between values parts separate entries of the source, which are not always exact repeats. Identical values can stand only once.

Experiments:
[1] = target: T1, eSrtA displayed on ICY200 yeast as a C-terminal Aga2p fusion (Staphylococcus aureus, UniProt Q2FV99 60-206); test: yeast-displayed eSrtA, 10 µM Btn-LAETGG against 100 nM to 1 mM LPETGG, cell biotinylation by flow cytometry
T1 construct: the whole entry is named here; also called Yeast displaying eSrtA; S. cerevisiae displaying eSrtA; not shown: Aga2p, yeast display anchor
T1 chain: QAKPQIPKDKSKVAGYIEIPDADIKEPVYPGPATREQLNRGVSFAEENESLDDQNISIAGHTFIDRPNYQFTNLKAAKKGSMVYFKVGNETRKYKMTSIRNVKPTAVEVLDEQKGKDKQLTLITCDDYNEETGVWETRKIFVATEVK

Abz-LAETGK(Dnp)-CONH2 = target: T2, Abz-LAETGK(Dnp)-CONH2
T2 chain: LAETGK

Alexa Fluor 488-LAETGG = target: T3, Alexa Fluor 488-LAETGG
T3 chain: KLAETGG

Abz-LPESGK(Dnp)-CONH2 = target: T4, Abz-LPESGK(Dnp)-CONH2
T4 chain: LPESGK

Abz-LPETGK(Dnp)-CONH2 = target: T5, Abz-LPETGK(Dnp)-CONH2
T5 chain: LPETGK

[2] = target: T6, human fetuin A, endogenous in human plasma, P02765
T6 chain: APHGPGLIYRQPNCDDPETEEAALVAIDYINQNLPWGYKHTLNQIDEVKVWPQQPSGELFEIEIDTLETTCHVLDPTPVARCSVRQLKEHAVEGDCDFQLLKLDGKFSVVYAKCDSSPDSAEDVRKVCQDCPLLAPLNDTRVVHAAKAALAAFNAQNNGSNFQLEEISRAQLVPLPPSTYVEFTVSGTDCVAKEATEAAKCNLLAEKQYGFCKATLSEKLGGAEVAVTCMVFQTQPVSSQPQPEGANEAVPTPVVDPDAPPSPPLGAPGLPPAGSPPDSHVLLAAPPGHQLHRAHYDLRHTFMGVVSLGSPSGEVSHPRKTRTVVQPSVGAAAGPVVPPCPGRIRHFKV

Alexa Fluor 647-LPESGG = target: T7, Alexa Fluor 647-LPESGG
T7 chain: KLPESGG

Abz-LPECGK(Dnp)-CONH2 = target: T8, Abz-LPECGK(Dnp)-CONH2
T8 chain: LPECGK

Gly-Gly-Gly-COOH = target: T9, Gly-Gly-Gly-COOH
T9 chain: GGG

Abz-LPEAGK(Dnp)-CONH2 = target: T10, Abz-LPEAGK(Dnp)-CONH2
T10 chain: LPEAGK

Abz-LSETGK(Dnp)-CONH2 = target: T11, Abz-LSETGK(Dnp)-CONH2
T11 chain: LSETGK

Abz-LRETGK(Dnp)-CONH2 = target: T12, Abz-LRETGK(Dnp)-CONH2
T12 chain: LRETGK

Question: Which Ki [1] does the source give for LPETGG [non-biotinylated LPETGG peptide] here?
Answer: < 100 µM

B1: eSrtA(4S-9) (protein)
chain: T1 chain with N39D, S43C, A45V, A59T, F63A, K75R, F85L, I123V, E130F
Question: Which results are given for B1?
Answer: Km (Abz-LAETGK(Dnp)-CONH2): 387 µM; Rel. Activity (fold below the enzyme's best substrate, LPESG) (Abz-LAETGK(Dnp)-CONH2): 898 fold; kcat/Km (Abz-LAETGK(Dnp)-CONH2): 20.2 M⁻¹ s⁻¹; conjugation of fluorophore-peptide to GGG-diblock (gel fluorescence), non-cognate pair (Alexa Fluor 488-LAETGG): no detectable off-target substrate conjugation; modification of GGG-PEG-functionalized 96-well plates (fluorescence), non-cognate pair: no significant modification (Alexa Fluor 488-LAETGG): Each enzyme exhibited significant modification only on its cognate substrate; Avg KM (Abz-LPESGK(Dnp)-CONH2): 123 µM; Avg kcat/KM (Abz-LPESGK(Dnp)-CONH2): 17600; Km (Abz-LPESGK(Dnp)-CONH2): 113 µM; Specificity, LPESG over LPETG (Abz-LPESGK(Dnp)-CONH2): 25 fold; difference in transpeptidation of LPESG over LPETG (Abz-LPESGK(Dnp)-CONH2): an approximately 40-fold difference in transpeptidation of LPESG (SEQ ID NO: 3) over LPETG (SEQ ID NO: 4) by eSrtA(4S-9); kcat/Km (Abz-LPESGK(Dnp)-CONH2): 18200 M⁻¹ s⁻¹ and 18000 M⁻¹ s⁻¹; Avg KM (Abz-LPETGK(Dnp)-CONH2): 66.1 µM; Avg kcat/KM (Abz-LPETGK(Dnp)-CONH2): 706; Km (Abz-LPETGK(Dnp)-CONH2): 64.7 µM; Rel. Activity (fold below the enzyme's best substrate, LPESG) (Abz-LPETGK(Dnp)-CONH2): 25 fold; kcat/Km (Abz-LPETGK(Dnp)-CONH2): 720 M⁻¹ s⁻¹; conjugation efficiency in human plasma, with supplemental calcium (densitometry) [2]: 1.8% or 57.6% by eSrtA(4S-9) in the absence or presence of supplemental calcium, respectively; conjugation efficiency in human plasma, without supplemental calcium (densitometry) [2]: 1.8% or 57.6% by eSrtA(4S-9) in the absence or presence of supplemental calcium, respectively; labeling of human plasma proteins with Gly-Gly-Gly-Lys(Biotin) [2]: identified a single transpeptidation product (FIG. 21C-D), identified by mass spectrometry and confirmed by Western blot as fetuin A; conjugation of fluorophore-peptide to GGG-diblock (gel fluorescence), cognate pair (Alexa Fluor 647-LPESGG): Significant peptide-diblock conjugation was observed only for cognate pairs of enzyme and substrate, with no detectable off-target substrate conjugation; modification of GGG-PEG-functionalized 96-well plates (fluorescence), cognate pair (Alexa Fluor 647-LPESGG): Each enzyme exhibited significant modification only on its cognate substrate; Km (Abz-LPECGK(Dnp)-CONH2): 69 µM; kcat/Km (Abz-LPECGK(Dnp)-CONH2): 74000 M⁻¹ s⁻¹; Avg KM (uM) for GGG; with LPESG (4S) peptide (Gly-Gly-Gly-COOH): 69500 µM; Avg KM (uM) for GGG; with LPETG (wt) peptide (Gly-Gly-Gly-COOH): 97600 µM; Avg kcat/KM for GGG; with LPESG (4S) peptide (Gly-Gly-Gly-COOH): 46.1; Avg kcat/KM for GGG; with LPETG (wt) peptide (Gly-Gly-Gly-COOH): 0.587; Km,GGG (µM); listed substrate LPEAG (Gly-Gly-Gly-COOH): 41000 µM; Km,GGG (µM); listed substrate LPECG (Gly-Gly-Gly-COOH): 55000 µM; Km,GGG (µM); listed substrate LPESG (Gly-Gly-Gly-COOH): 69000 µM; Km,GGG (µM); listed substrate LPETG (Gly-Gly-Gly-COOH): 98000 µM; Km (Abz-LPEAGK(Dnp)-CONH2): 154 µM; kcat/Km (Abz-LPEAGK(Dnp)-CONH2): 12300 M⁻¹ s⁻¹

B2: eSrtA(2A-9) (protein)
chain: QAKPQIPKDKSKVAGYIEIPDADIKEPVYPGPATREQLNRGVCFHDENESLDDQNISIAGHTFIDRPNYQFTNLKAAKPGSMVYFKVGNETRIYKMTSIRKVHPNAVEVLDEQEGKDKQLTLVTCDDYNEETGVWESRKIFVATEVK
Question: B2 was tested. Which Avg KM (Abz-LAETGK(Dnp)-CONH2) did it give?
Answer: 265 µM

Question: What about the Avg kcat/KM (Abz-LAETGK(Dnp)-CONH2) of the same binder?
Answer: 8420

Question: And the Km (Abz-LAETGK(Dnp)-CONH2)?
Answer: 265 µM

Question: And the Specificity (relative catalytic efficiency, fold), LAETG over LPETG (Abz-LAETGK(Dnp)-CONH2)?
Answer: 510 fold

Question: What about the kcat/Km (Abz-LAETGK(Dnp)-CONH2) of the same binder?
Answer: 8420 M⁻¹ s⁻¹

Question: And the Km (Abz-LSETGK(Dnp)-CONH2)?
Answer: 331 µM

Question: What about the kcat/Km (Abz-LSETGK(Dnp)-CONH2) of the same binder?
Answer: 355 M⁻¹ s⁻¹

Question: What about the “conjugation of fluorophore-peptide to GGG-diblock (gel fluorescence), cognate pair” value (Alexa Fluor 488-LAETGG) of the same binder?
Answer: Significant peptide-diblock conjugation was observed only for cognate pairs of enzyme and substrate, with no detectable off-target substrate conjugation

Question: What about the “modification of GGG-PEG-functionalized 96-well plates (fluorescence), cognate pair” value (Alexa Fluor 488-LAETGG) of the same binder?
Answer: Each enzyme exhibited significant modification only on its cognate substrate

Question: And the Km (Abz-LRETGK(Dnp)-CONH2)?
Answer: 1070 µM

Question: And the kcat/Km (Abz-LRETGK(Dnp)-CONH2)?
Answer: 233 M⁻¹ s⁻¹

Question: And the Km (Abz-LPESGK(Dnp)-CONH2)?
Answer: 4800 µM

Question: What about the Rel. Activity (fold below the enzyme's best substrate, LAETG) (Abz-LPESGK(Dnp)-CONH2) of the same binder?
Answer: 5940 fold

Question: And the kcat/Km (Abz-LPESGK(Dnp)-CONH2)?
Answer: 1.42 M⁻¹ s⁻¹

Question: And the Avg KM (Abz-LPETGK(Dnp)-CONH2)?
Answer: 1270 µM

Question: And the Avg kcat/KM (Abz-LPETGK(Dnp)-CONH2)?
Answer: 16.5

Question: What about the Km (Abz-LPETGK(Dnp)-CONH2) of the same binder?
Answer: 1270 µM

Question: And the Rel. Activity (fold below the enzyme's best substrate, LAETG) (Abz-LPETGK(Dnp)-CONH2)?
Answer: 510 fold

Question: What about the kcat/Km (Abz-LPETGK(Dnp)-CONH2) of the same binder?
Answer: 16.5 M⁻¹ s⁻¹

Question: And the “conjugation of fluorophore-peptide to GGG-diblock (gel fluorescence), non-cognate pair” value (Alexa Fluor 647-LPESGG)?
Answer: no detectable off-target substrate conjugation

Question: And the “modification of GGG-PEG-functionalized 96-well plates (fluorescence), non-cognate pair: no significant modification” value (Alexa Fluor 647-LPESGG)?
Answer: Each enzyme exhibited significant modification only on its cognate substrate

Question: And the Avg KM (uM) for GGG; with LAETG (2A) peptide (Gly-Gly-Gly-COOH)?
Answer: 1480 µM

Question: And the Avg kcat/KM for GGG; with LAETG (2A) peptide (Gly-Gly-Gly-COOH)?
Answer: 1070

Question: And the Km,GGG (µM); listed substrate LAETG (Gly-Gly-Gly-COOH)?
Answer: 1480 µM

Question: What about the Km,GGG (µM); listed substrate LPETG (Gly-Gly-Gly-COOH) of the same binder?
Answer: 585 µM

Question: And the Km,GGG (µM); listed substrate LRETG (Gly-Gly-Gly-COOH)?
Answer: 628 µM

Question: And the Km,GGG (µM); listed substrate LSETG (Gly-Gly-Gly-COOH)?
Answer: 1270 µM
